Experimental data from patent publication US20170368132A1 (published 2017).
Positions count from the first letter of the chain named.

Assays:
Assay in all cases: yeast two-hybrid, human RAD51 mutant
[1] = target: T1, Rad51 (S208L; A209E; M210A) (human, UniProt Q06609 1-339)
T1 construct: Human RAD51 mutant tested by Y2H; also called human RAD51 S208L A209E M210A
T1 chain: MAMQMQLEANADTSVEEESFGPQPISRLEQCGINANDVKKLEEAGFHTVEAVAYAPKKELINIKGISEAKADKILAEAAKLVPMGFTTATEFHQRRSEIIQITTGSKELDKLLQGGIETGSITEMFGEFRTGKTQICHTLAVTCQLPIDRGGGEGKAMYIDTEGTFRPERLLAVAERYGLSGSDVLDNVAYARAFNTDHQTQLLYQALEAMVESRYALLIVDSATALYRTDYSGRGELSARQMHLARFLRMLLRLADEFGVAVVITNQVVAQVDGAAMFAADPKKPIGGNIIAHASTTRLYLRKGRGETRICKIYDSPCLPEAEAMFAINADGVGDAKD
Description: (§1) The ability of peptides to bind human RAD51 with various mutations was then tested by Y2H assay. […] While mutations affecting BRCA2 binding had no effect on peptide binding, mutations that affected RAD51-AP1 binding did disrupt peptide binding. As these mutations were at residues 202, 205, and 206, they were consistent with the previous fusion data showing binding somewhere in the 190-218 region, and indicated the peptide SEQ ID NO.:5 contacts at least residues 202, 205, and 206 of RAD51.

[2] = target: T2, Rad51 (Q202R, Y205D, Q206A) (human, UniProt Q06609 1-339)
T2 construct: Human RAD51 mutant tested by Y2H; also called human RAD51 Q202R Y205D Q206A
T2 chain: T1 chain with Q202R, Y205D, Q206A, L208S, E209A, A210M
Description: as §1

Rad51 (F86E; A89E) = target: T3, Rad51 (F86E; A89E) (human, UniProt Q06609 1-339)
T3 construct: Human RAD51 mutant tested by Y2H; also called human RAD51 F86E A89E
T3 chain: T1 chain with F86E, A89E, L208S, E209A, A210M
Description: as §1

Rad51 (S208E; A209D) = target: T4, Rad51 (S208E; A209D) (human, UniProt Q06609 1-339)
T4 construct: Human RAD51 mutant tested by Y2H; also called human RAD51 S208E A209D
T4 chain: T1 chain with L208E, E209D, A210M
Description: as §1

KRRRRRRRKRLGVRLRVSRML [compound 5 peptide sequence (SEQ ID NO.:5)]
binding result [1]: binds | binding result [2]: no binding | binding result (Rad51 (F86E; A89E)): binds | binding result (Rad51 (S208E; A209D)): binds
